Changes are numbered by the printed parent chain. Numbers in names are those of the source.
T1: mouse FcγRIIb (mouse, UniProt P08101 30-210, limits assumed)
T1 sequence (looked up): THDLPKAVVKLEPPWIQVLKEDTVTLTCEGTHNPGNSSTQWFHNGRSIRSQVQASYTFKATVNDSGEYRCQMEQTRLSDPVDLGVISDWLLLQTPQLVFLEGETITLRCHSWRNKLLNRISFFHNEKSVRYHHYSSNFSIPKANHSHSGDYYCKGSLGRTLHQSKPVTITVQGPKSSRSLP

T2: mouse FcγRIII (mouse, UniProt P08508 31-215)
T2 sequence (looked up): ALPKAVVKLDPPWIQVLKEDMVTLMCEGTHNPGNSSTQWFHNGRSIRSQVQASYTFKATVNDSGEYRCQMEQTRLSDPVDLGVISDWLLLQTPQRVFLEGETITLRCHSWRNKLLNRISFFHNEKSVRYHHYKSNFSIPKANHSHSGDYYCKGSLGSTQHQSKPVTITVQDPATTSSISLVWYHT

B1: VH3/L(WT)-IgG1-F140 (antibody)
heavy: QVQLQESGPGLVKPSETLSLTCAVSGHSISHDHAWSWVRQPPGEGLEWIGFISYSGITNYNPSLQGRVTISRDNSKNTLYLQMNSLRAEDTAVYYCARSLARTTAMDYWGEGTLVTVSSASTKGPSVFPLAPSSKSTSGGTAALGCLVKDYFPEPVTVSWNSGALTSGVHTFPAVLQSSGLYSLSSVVTVPSSSLGTQTYICNVNHKPSNTKVDKKVEPKSCDKTHTCPPCPAPELLGGPKVFLFPPKPKDTLYISRTPEVTCVVVDVSHEDPEVKFNWYVDGVEVHNAKTKPREEQYNSTYRVVSVLTPLHQDWLNGKEYKCKVSNKALPAPIEKTISKAKGQPREPQVYTLPPSRDELTKNQVSLTCLVKGFYPSDIAVEWESNGQPENNYKTTPPVLDSDGSFFLYSKLTVDKSRWQQGNVFSCSVMHEALHYHYTQKSLSLSP
light: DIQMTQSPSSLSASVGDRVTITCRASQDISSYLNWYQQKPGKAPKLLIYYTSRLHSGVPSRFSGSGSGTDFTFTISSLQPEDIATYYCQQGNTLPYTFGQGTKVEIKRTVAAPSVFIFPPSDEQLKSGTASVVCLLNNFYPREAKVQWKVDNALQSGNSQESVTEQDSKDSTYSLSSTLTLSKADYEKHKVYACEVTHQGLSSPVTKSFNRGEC
notes: VH3-IgG1-F21 with S239K (EU); measured with L(WT)-CK; also called Fv4-IgG1-F140; copies: 2 + 2
B2: VH3/L(WT)-IgG1-F424 (antibody)
heavy: B1 heavy with Y254M, P259A, M430L
light: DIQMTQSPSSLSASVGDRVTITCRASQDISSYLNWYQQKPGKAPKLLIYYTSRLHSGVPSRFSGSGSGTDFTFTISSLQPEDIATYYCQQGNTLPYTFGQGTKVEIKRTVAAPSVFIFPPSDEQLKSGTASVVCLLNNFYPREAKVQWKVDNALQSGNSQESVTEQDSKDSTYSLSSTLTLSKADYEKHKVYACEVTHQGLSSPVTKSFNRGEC
notes: VH3-IgG1-F157 with S239K (EU); measured with L(WT)-CK; also called Fv4-IgG1-F424; copies: 2 + 2

Assays:
human FcγRIa = target: T3, human FcγRIa (human, UniProt P12314 16-292, limits assumed); test: Biacore, Protein L capture, human FcγR injected, pH 7.4, 25 C (Table 13 not given)
T3 construct: also called hFcgRI; hFcγRIa

mouse FcγRIIb [1] = target: T1, mouse FcγRIIb; test: Biacore, Protein L capture, mouse FcγR injected, pH 7.4, 25 C (Table 7 not given); weaker than F21
mouse FcγRIII = target: T2, mouse FcγRIII; test: as above
mouse FcγRIIb [2] = target: T1, mouse FcγRIIb; test: Biacore, Protein L capture, mouse FcγR injected, pH 7.4, 25 C (Table 7 not given); weaker than F157

T3 sequence (P12314 16-292 limits assumed): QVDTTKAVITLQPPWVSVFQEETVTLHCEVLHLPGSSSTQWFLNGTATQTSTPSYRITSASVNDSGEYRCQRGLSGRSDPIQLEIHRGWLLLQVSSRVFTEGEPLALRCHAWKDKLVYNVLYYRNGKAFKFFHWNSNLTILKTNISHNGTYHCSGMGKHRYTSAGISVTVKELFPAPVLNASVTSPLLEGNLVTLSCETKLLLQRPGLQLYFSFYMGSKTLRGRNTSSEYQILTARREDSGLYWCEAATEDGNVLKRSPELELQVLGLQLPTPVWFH

Binder	binding result (human FcγRIa)	binding result (mouse FcγRIIb [1])	binding result (mouse FcγRIII)	binding result (mouse FcγRIIb [2])
B1	binds	binds	binds	
B2				binds
